In test [1] the target is low affinity binding site for RTL on MHC class II deficient mouse splenocytes. Nature of the test: competition on whole cells of MHC class II knockout mice: labeled RTL1000 against increasing unlabeled RTL340; SDS-PAGE fluorescence densitometry.
Test [2] concerns the target low affinity binding site for RTL on DR*1501-Tg mouse splenocytes. As to the kind of experiment: competition of unlabeled construct with labeled RTL1000 (280 nM) on DR*1501-Tg splenocytes; low affinity site.
For test [3], the target named is low affinity binding site for RTL on MHC class II deficient mouse splenocytes. Nature of the test: competition of unlabeled construct with labeled RTL1000 on MHC class II deficient mouse splenocytes; low affinity site.
Test [4] has as its target RTL binding sites on CD11b+ monocytes of DR*1501-Tg mice. Nature of the test: flow cytometry; naive CD11b+ monocytes incubated with 1 µg RTL1000 FITC (1 hour at 37 °C by the text); upper row of panels.
For test [5], the target named is RTL binding sites on CD3+ cells of DR*1501-Tg mouse blood. Nature of the test: flow cytometry; blood of naive DR*1501-Tg mice 15 minutes after injection of 500 µg FITC-labeled RTL; lymphocyte gate, live cells; No RTL (pre-injection) panel 0.05%.
Test [6] has as its target four-domain MHC class II from DR*1501-Tg mice (human transgene expressed in mouse). Nature of the test: direct saturation binding of FITC-labeled construct to MHC class II immuno-adsorbed on Protein L/L243 beads; one-site fit.
The target of test [7] is RTL binding sites on CD3+ cells of DR*1501-Tg mouse blood. Nature of the test: flow cytometry; blood of naive DR*1501-Tg mice incubated in vitro with FITC-labeled RTL (legend: 500 µg), 90 minutes post-treatment; monocyte gate; No RTL (pre-treatment) panel 0.00%. On the technique in general: In flow cytometry, cells or beads pass a laser one at a time.
The target in test [8] is RTL binding sites on CD19+ cells of DR*1501-Tg mouse blood. The description is as above.
Test [9] deals with RTL binding sites on CD11c+ cells of DR*1501-Tg mouse blood. As to the kind of experiment: flow cytometry; blood of naive DR*1501-Tg mice incubated in vitro with FITC-labeled RTL (legend: 500 µg), 90 minutes post-treatment; lymphocyte gate; No RTL (pre-treatment) panel 0.00%.
Test [10] has as its target RTL binding sites on CD3+ cells of DR*1501-Tg mouse blood. Described as above.
Test [11] deals with RTL binding sites on CD19+ cells of DR*1501-Tg mouse blood. The test is described as above.
Test [12] has as its target high affinity binding site for RTL on DR*1501-Tg mouse splenocytes. Nature of the test: competition of unlabeled construct with labeled RTL1000 (280 nM) on DR*1501-Tg splenocytes; high affinity site.
Test [13] addresses RTL binding sites on CD11c+ cells of DR*1501-Tg mouse blood. Nature of the test: flow cytometry; blood of naive DR*1501-Tg mice 15 minutes after injection of 500 µg FITC-labeled RTL; monocyte gate, live cells; No RTL (pre-injection) panel 0.12%.
Test [14] concerns the target RTL binding sites on CD3+ cells of DR*1501-Tg mouse blood. The description is as above.
The target of test [15] is RTL binding sites on CD19+ cells of DR*1501-Tg mouse blood. The description is as above.
For test [16], the target named is RTL binding sites on CD11c+ cells of DR*1501-Tg mouse blood. As to the kind of experiment: flow cytometry; blood of naive DR*1501-Tg mice incubated in vitro with FITC-labeled RTL (legend: 500 µg), 90 minutes post-treatment; monocyte gate; No RTL (pre-treatment) panel 0.09%.
The target in test [17] is RTL binding sites on CD11b+ monocytes of DR*1501-Tg mice. Nature of the test: flow cytometry; blood of naive DR*1501-Tg mice incubated in vitro with FITC-labeled RTL (legend: 500 µg), 90 minutes post-treatment; monocyte gate; No RTL (pre-treatment) panel 0.07%.
Test [18] deals with CD74 (MHC class II invariant chain) of DR*1501-Tg mouse splenocytes and monocytes (mouse) (UniProt P04441).
Test [19] addresses low affinity binding site for RTL on MHC class II deficient mouse splenocytes. As to the kind of experiment: competition on whole cells of MHC class II knockout mice: labeled RTL1000 against increasing unlabeled RTL1000; SDS-PAGE fluorescence densitometry.
In test [20] the target is high affinity binding site for RTL on DR*1501-Tg mouse splenocytes. As to the kind of experiment: saturation binding to 2 million spleen cells on ice; urea lysis, SDS-PAGE, fluorescence densitometry; two-site fit.
Test [21] deals with low affinity binding site for RTL on DR*1501-Tg mouse splenocytes. The description is as above.
The target in the next test is Histone complex (Sigma). As to the kind of experiment: SPR (Biacore 3000), histone complex amine coupled to CM5 chip, RTL1000 injected; 1:1 Langmuir model with drifting baseline. (In general: In SPR one partner is held on a chip, and binding of the other changes the refractive index at the surface.)
Test [22] deals with RTL binding sites on CD11b+ monocytes of DR*1501-Tg mice. Nature of the test: flow cytometry; naive CD11b+ monocytes incubated with 5 µg RTL1000 FITC (1 hour at 37 °C by the text); upper row of panels.
Test [23] addresses RTL binding sites on CD11c+ cells of DR*1501-Tg mouse blood. Nature of the test: flow cytometry; blood of naive DR*1501-Tg mice 15 minutes after injection of 500 µg FITC-labeled RTL; lymphocyte gate, live cells; No RTL (pre-injection) panel 0.00%.
For test [24], the target named is RTL binding sites on CD19+ cells of DR*1501-Tg mouse blood. Described as above.
Test [25] concerns the target RTL binding sites on CD11b+ monocytes of DR*1501-Tg mice. Nature of the test: flow cytometry; blood of naive DR*1501-Tg mice incubated in vitro with FITC-labeled RTL (legend: 500 µg), 90 minutes post-treatment; LYMPHOCYTE gate; No RTL (pre-treatment) panel 0.00%.
Test [26] shares this target. As to the kind of experiment: flow cytometry; blood of naive DR*1501-Tg mice 15 minutes after injection of 500 µg FITC-labeled RTL; monocyte gate, live cells; No RTL (pre-injection) panel 0.14%.
For test [27] the target is unchanged. As to the kind of experiment: flow cytometry; blood of naive DR*1501-Tg mice 15 minutes after injection of 500 µg FITC-labeled RTL; LYMPHOCYTE gate, live cells; No RTL (pre-injection) panel 0.00%.
The subject of test [28] is mMOG-35-55-induced EAE in DR*1501-Tg mice.
Test [29] deals with T1, CD74 (MHC class II invariant chain) of DR*1501-Tg mouse splenocytes and monocytes (mouse, UniProt P04441-2 1-215, limits assumed, surface biotinylated in the immunoprecipitation experiments).
T1 construct: Native protein from mouse cells; also called p31
T1 sequence (looked up): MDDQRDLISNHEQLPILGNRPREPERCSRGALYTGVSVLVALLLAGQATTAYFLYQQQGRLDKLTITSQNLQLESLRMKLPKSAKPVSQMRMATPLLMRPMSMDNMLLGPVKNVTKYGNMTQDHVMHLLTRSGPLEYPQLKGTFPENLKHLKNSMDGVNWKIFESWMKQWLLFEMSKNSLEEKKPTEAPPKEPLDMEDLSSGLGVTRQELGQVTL
As to the kind of experiment: direct saturation binding of FITC-labeled construct to CD74 immuno-adsorbed on Protein L/ln-1 beads; SDS-PAGE densitometry; one-site fit.

Test [30] has as its target T1, CD74 (MHC class II invariant chain) of …. Nature of the test: competition of unlabeled DR-α1 with FITC-labeled RTL1000 (320 nM) for immunoprecipitated CD74; gel densitometry; one-site competition fit.
Setting [31] is: free peptide 10 μg i.v. daily for 5 days from onset.

In the case of RTL340 (pDR2/MBP-85-99) (peptide-MHC), the IC50 (read off the curve) in test [1] is 60 nM. Moreover, the values for the EC50 in test [2] and in test [3] were 140 nM and 43.2 nM, respectively.

For RTL1000 (pDR2/hMOG-35-55) (peptide-MHC), the values for the % of cells in the upper right quadrant (CD11b APC+, RTL1000 FITC+) in test [4] and in test [22] were 55.8% and 69.5%, respectively. Besides, the % of cells in the upper right quadrant (CD3 PE+, RTL FITC+) in test [5] is 0.16%; in test [7], 4.01%; in test [10] it was 1.49%; in test [14], 0.36%. Besides, the Kd (commonly the equilibrium constant for the complex coming apart) came to 1.14 nM in [6], 2.65 nM in [20], 131 nM in test [21] and 575 nM with Histone complex (Sigma). The % of cells in the upper right quadrant (CD19 APC+, RTL FITC+) in [8] stood at 5.82%; in test [11], 1.26%; in test [15] it was 3.93%; in test [24], 0.82%. The % of cells in the upper right quadrant (CD11c APC+, RTL FITC+) is 4.4% in test [9], 9.26% in test [13], 6.77% in test [16] and 4.63% in [23]. Also, the EC50 (usually the midpoint of the concentration-response curve) in test [12] worked out at 4000 nM; in [2], 11 nM; in [3] it was 71.1 nM. The % of cells in the upper right quadrant (CD11b PE+, RTL FITC+) amounted to 38.6% in test [17], 3.96% in test [25], 44.4% in test [26] and 9.23% in test [27]. Also, the CD74 expression on naive CD11b+ monocytes after 1 µg RTL1000: % of cells in the upper right quadrant (CD11b APC+, CD74 PE+) in test [18] turned out to be 42%. The molecule further showed a CD74 expression on naive CD11b+ monocytes after 5 µg RTL1000: % of cells in the upper right quadrant (CD11b APC+, CD74 PE+) in test [18] of 9.84%. The CD74 expression on naive CD11b+ monocytes after 10 µg RTL1000: % of cells in the upper right quadrant (CD11b APC+, CD74 PE+) in test [18] is 7.32%. This molecule gave an IC50 (read off the curve) in test [19] of 40 nM.

“mMOG-35-55 peptide: free mouse MOG-35-55 peptide, MEVGWYRSPFSRVVHLYRNGK (SEQ ID NO: 50) (Synthetic peptide - mouse MOG 35-55) [reference compound]”: in test [28] (setting [31]), the CDI is recorded as 31.5 ± 9.8, the Incidence is recorded as 5/5, the Mortality amounted to 0 and the Onset worked out at 11.2 ± 1.2. For the same molecule, the Peak in [28] (setting [31]) turned out to be 3.0 ± 0.9. The “effect on EAE (in words)” value in test [28] (mMOG-35-55-induced EAE) is listed as “did not produce significant inhibition of EAE”.

B1: DR-α1 domain alone (no DR2-β1 domain or peptide) (other, UniProt P01903 26-109, looked up)
chain: IKEEHVIIQAEFYLNPDQSGEFMFDFDGDEIFHVDMAKKETVWRLEEFGRFASFEAQGALANIAVDKANLEIMTKRSNYTPITN
modifications: labeled with FITC in the direct binding assays
notes: domain: α1
In test [29], B1 returned a Kd of 2.95 nM. In test [30], this molecule registered an EC50 of 447 nM.

Values taken from US20150044245A1, “PARTIAL MHC CONSTRUCTS AND METHODS OF USE” (Oregon Health & Science University, priority 2012, published 2015).
